# ± gives the uncertainty stated by the source.
# B1: Protein C-ets-1, residues 55 to 135; numbered along this chain, P14921 (parent)
# chain: GFTKEQQRLGIPKDPRQWTETHVRDWVMWAVNEFSLKGVDFQKFCMNGAALCALGKDCFLELAPDFVGDILWEHLEILQKE
# Variants of: B1
# Experiment: abundance fitness (aPCA) (normalised: wild type 0, dead -1); higher = more abundant; growth selection in yeast, the domain comes from the species named
# Conditions: Homo sapiens
row,Variant,abundance fitness
1,K13Q,-0.059 ± 0.067
2,L51K,-1.08 ± 0.15
3,K43Q,-0.086 ± 0.052
4,L75T,-1.02 ± 0.17
5,L54G,-0.229 ± 0.027
6,G10N,-0.135 ± 0.081
7,F59V,-0.467 ± 0.031
8,A30P,-0.8 ± 0.074
9,D57M,-0.158 ± 0.05
10,H22C,-0.801 ± 0.12
11,P64I,-0.891 ± 0.22
12,F44K,-1.04 ± 0.27
13,K4E,0.008 ± 0.059
14,N47V,-0.903 ± 0.081
15,I11E,-0.773 ± 0.098
16,T21E,-0.073 ± 0.071
17,T21A,0.002 ± 0.033
18,L36S,-0.751 ± 0.065
19,E5Q,-0.123 ± 0.061
20,F59I,-0.414 ± 0.064
21,G48E,-0.806 ± 0.17
22,F2H,-0.43 ± 0.16
23,M28E,0.005 ± 0.047
24,M46F,-0.028 ± 0.09

row,Variant,abundance fitness
1,L71C,-0.834 ± 0.14
2,D40N,-0.146 ± 0.067
3,A50H,-0.076 ± 0.079
4,N32W,-0.332 ± 0.05
5,G10I,-0.187 ± 0.096
6,D69L,-0.057 ± 0.036
7,N32Q,0.003 ± 0.041
8,L51H,-0.813 ± 0.14
9,N32I,-0.193 ± 0.073
10,W72T,-1 ± 0.19
11,L71W,-0.946 ± 0.11
12,R16G,-0.108 ± 0.034
13,G48S,-0.911 ± 0.066
14,F59H,-0.953 ± 0.14
15,A53T,-0.039 ± 0.037
16,E73C,-0.252 ± 0.074
17,D25W,-0.05 ± 0.045
18,F34I,-0.9 ± 0.14
19,I11V,-0.09 ± 0.026
20,I77W,-0.033 ± 0.047
21,R8H,-0.095 ± 0.058
22,L54S,-0.445 ± 0.032
23,E20I,-0.128 ± 0.045
24,F41S,-0.042 ± 0.036

row,Variant,abundance fitness
1,K37L,-0.161 ± 0.029
2,L78P,-0.513 ± 0.048
3,A63I,-0.038 ± 0.12
4,V23K,-0.904 ± 0.2
5,Q17P,-0.983 ± 0.14
6,K4Y,-0.039 ± 0.092
7,L51R,-0.788 ± 0.051
8,Q42M,-0.237 ± 0.066
9,D14N,-0.122 ± 0.061
10,F41L,0.051 ± 0.028
11,F2L,-0.343 ± 0.046
12,A63W,-0.014 ± 0.062
13,M28L,-0.022 ± 0.031
14,R8G,-0.112 ± 0.03
15,Q6V,-0.096 ± 0.027
16,A50L,-0.202 ± 0.034
17,D69W,-0.262 ± 0.056
18,G48Q,-0.931 ± 0.14
19,V31A,0.018 ± 0.037
20,T19F,-0.858 ± 0.11
21,P12N,-0.47 ± 0.15
22,A50W,-0.548 ± 0.056
23,F59C,-0.65 ± 0.083
24,K43Y,-0.351 ± 0.078

row,Variant,abundance fitness
1,L36Y,-0.539 ± 0.15
2,F66R,0.033 ± 0.046
3,G48R,-0.933 ± 0.085
4,G48H,-0.94 ± 0.47
5,M28S,0.017 ± 0.033
6,F2N,-0.141 ± 0.12
7,M46K,-0.376 ± 0.065
8,F2P,-0.398 ± 0.074
9,W72V,-0.918 ± 0.086
10,K37I,-0.064 ± 0.081
11,N47E,-0.165 ± 0.085
12,A53N,0.01 ± 0.052
13,N32S,-0.008 ± 0.032
14,L62K,-0.195 ± 0.066
15,K4V,-0.098 ± 0.036
16,C45T,-0.007 ± 0.061
17,E61L,-0.248 ± 0.045
18,E20A,-0.035 ± 0.025
19,E73D,0.04 ± 0.09
20,T3L,-0.055 ± 0.041
21,T19C,-0.221 ± 0.078
22,M28V,0.009 ± 0.032
23,D65N,0.084 ± 0.074
24,K37T,-0.027 ± 0.047

row,Variant,abundance fitness
1,G1K,0.049 ± 0.24
2,L60T,0.001 ± 0.057
3,L9K,-0.139 ± 0.082
4,P12C,-0.305 ± 0.069
5,D69R,-0.09 ± 0.04
6,M46P,-0.852 ± 0.076
7,W26Y,-0.281 ± 0.049
8,A53F,-0.655 ± 0.066
9,L71G,-0.932 ± 0.072
10,L78H,-0.553 ± 0.1
11,H22I,-0.881 ± 0.17
12,G10H,-0.072 ± 0.09
13,Q42H,-0.068 ± 0.068
14,V23F,-0.857 ± 0.11
15,A53I,-0.452 ± 0.075
16,A30L,-0.187 ± 0.036
17,D25Q,-0.003 ± 0.048
18,E5V,-0.05 ± 0.039
19,Q17E,0.046 ± 0.053
20,K13C,-0.04 ± 0.052
21,G55T,0.041 ± 0.04
22,L60P,-0.628 ± 0.063
23,V39K,-0.533 ± 0.14
24,M28A,-0.026 ± 0.033

row,Variant,abundance fitness
1,T21V,-0.041 ± 0.041
2,H74G,-0.346 ± 0.042
3,V23R,-0.686 ± 0.059
4,C45S,0.01 ± 0.035
5,W29D,-0.685 ± 0.064
6,K37G,-0.054 ± 0.03
7,A30D,-0.671 ± 0.086
8,R24T,-0.087 ± 0.052
9,A30K,-0.366 ± 0.07
10,V23P,-0.985 ± 0.12
11,C58M,-0.009 ± 0.042
12,E5K,-0.183 ± 0.06
13,E33Y,-0.099 ± 0.062
14,D14F,-0.443 ± 0.052
15,L36A,-0.52 ± 0.031
16,K43M,-0.315 ± 0.083
17,K4I,0.037 ± 0.11
18,P64V,-0.836 ± 0.085
19,L78C,-0.16 ± 0.034
20,A49M,-0.055 ± 0.032
21,F34A,-0.493 ± 0.032
22,N47L,-0.879 ± 0.07
23,A30Y,-0.188 ± 0.13
24,T3R,-0.082 ± 0.037

row,Variant,abundance fitness
1,F44Q,-1.08 ± 0.24
2,W29Q,-0.59 ± 0.058
3,D69N,-0.002 ± 0.064
4,R24K,0.096 ± 0.075
5,F66A,0.02 ± 0.045
6,F44G,-1.02 ± 0.098
7,G55C,0.019 ± 0.057
8,W72F,-0.098 ± 0.062
9,D25P,-0.973 ± 0.08
10,M28F,-0.088 ± 0.057
11,A50Q,0.015 ± 0.058
12,L75N,-0.697 ± 0.16
13,E76L,-0.094 ± 0.043
14,E76P,-0.205 ± 0.058
15,K13R,-0.077 ± 0.034
16,E20Y,-0.224 ± 0.05
17,P15K,-0.813 ± 0.25
18,A30I,-0.196 ± 0.079
19,G10Q,0.008 ± 0.051
20,I77Q,-0.029 ± 0.073
21,M46W,-0.631 ± 0.11
22,T3G,-0.042 ± 0.041
23,D40C,-0.134 ± 0.057
